As a reminder, the Kd is the free concentration of one partner at which half of the binding sites on the other are occupied at equilibrium, for simple one-to-one binding. A low value points to tighter binding.

Consider 32 molecules from article PMC10786891, “Massively parallel profiling of RNA-targeting CRISPR-Cas13d”.

T1: EsCas13d, nuclease-dead (Eubacterium siraeum, UniProt B0MS50, R295A;H300A;R849A;H854A)
T1 sequence: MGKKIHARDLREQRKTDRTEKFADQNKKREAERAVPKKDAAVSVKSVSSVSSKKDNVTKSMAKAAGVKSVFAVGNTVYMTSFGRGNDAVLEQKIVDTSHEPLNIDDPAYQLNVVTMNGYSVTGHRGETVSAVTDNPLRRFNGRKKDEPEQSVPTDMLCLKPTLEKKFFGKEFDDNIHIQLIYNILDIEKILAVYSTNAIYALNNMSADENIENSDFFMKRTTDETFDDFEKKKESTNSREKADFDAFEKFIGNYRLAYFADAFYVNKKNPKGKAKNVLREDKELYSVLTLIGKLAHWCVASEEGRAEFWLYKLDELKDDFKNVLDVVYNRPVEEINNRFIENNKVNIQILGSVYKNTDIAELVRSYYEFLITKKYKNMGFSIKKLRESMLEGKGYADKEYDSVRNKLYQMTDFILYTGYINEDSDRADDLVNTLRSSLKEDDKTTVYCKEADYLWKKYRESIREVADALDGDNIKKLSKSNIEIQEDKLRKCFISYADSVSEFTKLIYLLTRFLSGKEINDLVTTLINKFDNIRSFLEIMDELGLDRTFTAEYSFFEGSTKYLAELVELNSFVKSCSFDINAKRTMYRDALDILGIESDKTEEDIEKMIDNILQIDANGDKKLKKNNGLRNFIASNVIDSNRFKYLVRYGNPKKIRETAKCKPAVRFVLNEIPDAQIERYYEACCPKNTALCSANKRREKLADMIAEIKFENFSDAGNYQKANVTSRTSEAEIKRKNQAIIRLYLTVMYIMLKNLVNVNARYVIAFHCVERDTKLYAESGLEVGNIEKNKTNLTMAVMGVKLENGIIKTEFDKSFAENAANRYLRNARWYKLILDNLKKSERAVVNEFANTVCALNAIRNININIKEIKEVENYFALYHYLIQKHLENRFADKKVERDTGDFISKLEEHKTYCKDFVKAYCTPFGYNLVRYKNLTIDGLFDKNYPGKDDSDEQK

B1: target 1 A1U,A18U (mixed)
RNA 1: CACCCGUGCAAAAAUGCAGGGGUCUAAAACUGAGCGGAUAACCUCUCUAUGG
RNA 2: GGGAAUGGAUCCACAUCUACGAAUUCGUACCAUUGAGAGGUUAUCCGCUCUCCGAGAUCGGAAGAGCACACGU
B2: target 1 insA 3' of 11,insU 3' of 4 (mixed)
RNA 1: B1 RNA 1
RNA 2: GGGAAUGGAUCCACAUCUACGAAUUCGUACCAUAGAGAGGUAUAUCCGCUUCACCGAGAUCGGAAGAGCACACGU
B3: target 1 insA 3' of 6,insC 3' of 1 (mixed)
RNA 1: B1 RNA 1
RNA 2: B2 RNA 2 with A42U, U43A, A44U, U45C, C47A, U51C, C52A, A53C
B4: target 1 insA 3' of 12,insC 3' of 12 (mixed)
RNA 1: B1 RNA 1
RNA 2: B2 RNA 2 with U41A, A42C, A44U, U45A, C46U, G48C, C49G, U50C
B5: target 1 insC 3' of 18,insA 3' of 6 (mixed)
RNA 1: B1 RNA 1
RNA 2: GGGAAUGGAUCCACAUCUACGAAUUCGUACCAUACGAGAGGUUAUCCAGCUCACCGAGAUCGGAAGAGCACACGU
B6: target 1 insG 3' of 22,insC 3' of 15 (mixed)
RNA 1: B1 RNA 1
RNA 2: GGGAAUGGAUCCACAUCUACGAAUUCGUACGCAUAGAGCAGGUUAUCCGCUCACCGAGAUCGGAAGAGCACACGU
B7: target 1 insU 3' of 7,insU 3' of 2 (mixed)
RNA 1: B1 RNA 1
RNA 2: B2 RNA 2 with A42U, U43A, A44U, U45C, C46U, U51C, C52U
B8: target 1 insU 3' of 20,insA 3' of 19 (mixed)
RNA 1: B1 RNA 1
RNA 2: B6 RNA 2 with G31C, C32A, A33U, G36A, A37G, G38A, C39G
B9: target 1 insG 3' of 8,insU 3' of 2 (mixed)
RNA 1: B1 RNA 1
RNA 2: B2 RNA 2 with A42U, U43A, A44U, U45G, U51C, C52U
B10: target 1 insU 3' of 12,insC 3' of 3 (mixed)
RNA 1: B1 RNA 1
RNA 2: B2 RNA 2 with A42U, U51C
B11: target 1 insG 3' of 16,insC 3' of 15 (mixed)
RNA 1: B1 RNA 1
RNA 2: B6 RNA 2 with G31C, C32A, A33U, U34A, A35G, G36A, A37G
B12: target 1 insG 3' of 21,insG 3' of 8 (mixed)
RNA 1: B1 RNA 1
RNA 2: B5 RNA 2 with A32G, U33A, A34U, C35A, C46G, A48C
B13: target 1 insU 3' of 2,insG 3' of 1 (mixed)
RNA 1: B1 RNA 1
RNA 2: GGGAAUGGAUCCACAUCUACGAAUUCGUACCAUAGAGAGGUUAUCCGCUCUAGCCGAGAUCGGAAGAGCACACGU
B14: target 1 insU 3' of 17,insU 3' of 15 (mixed)
RNA 1: B1 RNA 1
RNA 2: B6 RNA 2 with G31C, C32A, A33U, U34A, A35G, G36U, C39U
B15: target 1 C2G,U8A (mixed)
RNA 1: B1 RNA 1
RNA 2: B1 RNA 2 with U34A, U44A, C50G, U51A
B16: target 1 G5C,C22A (mixed)
RNA 1: B1 RNA 1
RNA 2: B1 RNA 2 with C30A, U34A, G47C, U51A
B17: target 1 C6A,U10G (mixed)
RNA 1: B1 RNA 1
RNA 2: B1 RNA 2 with U34A, U42G, C46A, U51A
B18: target 1 C2A,A9C (mixed)
RNA 1: B1 RNA 1
RNA 2: B1 RNA 2 with U34A, A43C, C50A, U51A
B19: target 1 insU 3' of 15,insG 3' of 14 (mixed)
RNA 1: B1 RNA 1
RNA 2: B5 RNA 2 with C35G, G36A, A37G, G38U, U42G, A44U, U45A, C46U, A48C
B20: target 1 insA 3' of 19,insC 3' of 15 (mixed)
RNA 1: B1 RNA 1
RNA 2: B6 RNA 2 with G31C, C32A, A33U, U34A
B21: target 1 insU 3' of 14,insU 3' of 7 (mixed)
RNA 1: B1 RNA 1
RNA 2: B5 RNA 2 with C35G, G36A, A37G, G38A, A39U, C47U, A48C
B22: target 1 insA 3' of 11,insA 3' of 10 (mixed)
RNA 1: B1 RNA 1
RNA 2: B2 RNA 2 with U45A, C46U, G48C, C49G, U50C
B23: target 1 insG 3' of 21,insA 3' of 4 (mixed)
RNA 1: B1 RNA 1
RNA 2: B5 RNA 2 with A32G, U33A, A34U, C35A, A48G, G49C, C50A
B24: target 1 C2U,C7A (mixed)
RNA 1: B1 RNA 1
RNA 2: B1 RNA 2 with U34A, C45A, C50U, U51A
B25: target 1 C22G (mixed)
RNA 1: B1 RNA 1
RNA 2: B1 RNA 2 with C30G, U34A, U51A
B26: target 1 insU 3' of 18,insA 3' of 6 (mixed)
RNA 1: B1 RNA 1
RNA 2: B5 RNA 2 with C35U
B27: target 1 insG 3' of 6,insC 3' of 5 (mixed)
RNA 1: B1 RNA 1
RNA 2: B13 RNA 2 with C48G, U49C, A52C, G53A
B28: target 1 insC 3' of 14,insG 3' of 10 (mixed)
RNA 1: B1 RNA 1
RNA 2: B5 RNA 2 with C35G, G36A, A37G, G38A, A39C, A44G, U45A, C46U, A48C
B29: target 1 insA 3' of 13,insU 3' of 4 (mixed)
RNA 1: B1 RNA 1
RNA 2: B2 RNA 2 with G40A, U41G, A42U
B30: target 1 insC 3' of 22,insG 3' of 16 (mixed)
RNA 1: B1 RNA 1
RNA 2: B6 RNA 2 with G31C, C39G
B31: target 1 insU 3' of 20,insA 3' of 15 (mixed)
RNA 1: B1 RNA 1
RNA 2: B6 RNA 2 with G31C, C32A, A33U, C39A
B32: target 1 insU 3' of 13,insC 3' of 3 (mixed)
RNA 1: B1 RNA 1
RNA 2: B2 RNA 2 with G40U, U41G, A42U, U51C

Residue numbers refer to the chain shown, from its start. In names and notes the source's numbering stands.

This data set concerns the target T1, EsCas13d, nuclease-dead. Description: crRNA (strand 1, pre-loaded); Mg2+; 40 mM Tris-HCl pH 7.5, 150 mM NaCl, 6 mM MgCl2, 1 mM DTT, 0.1% Tween-20, 0.2 mg/ml BSA; 25 C; 10 min per concentration, then washed. To be noted: tags: His6-TwinStrep-SUMO cleaved; N-terminal SNAP kept (SNAP-Surface 488); label: 3' end held by stalled T7 RNA polymerase.
Molecule B1 gave a Kd of 22 ± 2 nM. As for B2, the figure is 13.7 ± 0.9 nM; as for B3, 17.6 ± 1.1 nM; as for B4, 30.4 ± 1.8 nM. The molecule B5 showed a Kd of 32.3 ± 1.5 nM.

For the molecule B6, binding was put at a Kd of 48 ± 4 nM. On to B7, for which the dissociation constant (Kd) worked out at 21.3 ± 1.1 nM. The result for B8 reads 20.9 ± 1.4 nM; that for B9, 15.1 ± 0.6 nM; that for B10, 8.3 ± 0.6 nM.

Molecule B11 came in with a Kd of 28.8 ± 2.1 nM.

Consider B12, for which the Kd was determined as 58 ± 10 nM. The result for B13 reads 12.2 ± 0.6 nM; that for B14, 64 ± 28 nM. As for B15, the figure is 13.5 ± 0.8 nM; as for B16, 17.3 ± 1.9 nM; as for B17, 13.9 ± 0.7 nM. The result for B18 reads 12.2 ± 0.4 nM; that for B19, 22.5 ± 2.2 nM; that for B20, 52 ± 9 nM. On to B21, for which binding was put at a Kd of 77 ± 9 nM. The result for B22 reads 9.4 ± 0.5 nM; that for B23, 41 ± 10 nM; that for B24, 6.8 ± 0.5 nM.

Regarding B25, the Kd amounted to 61 ± 11 nM.

Regarding B26, the dissociation constant (Kd) came to 32.6 ± 1.1 nM. The result for B27 reads 13.9 ± 1.1 nM; that for B28, 43 ± 10 nM.

Molecule B29 registered an equilibrium dissociation constant (Kd) of 3.45 ± 0.26 nM. As for B30, the figure is 75 ± 21 nM.

B31 displayed a Kd of 7.6 ± 0.5 nM. As for B32, the figure is 25 ± 5 nM.
